target: c-Src SH2; assay: SH2 binding enrichment of the phosphorylated peptide, bacterial display (enrichment ratio); higher = better substrate or ligand; peptides without Tyr show the background
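Note: peptide library displayed on the E. coli surface as eCPX fusions, selected cells deep-sequenced, score is each peptide's frequency after selection divided by its frequency in the input.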

SH2 binding enrichment	Sequence
0.493	ESAAIYNPVIF [RHO_Y301_K296E_YF]
0.383	PMQLPHDSTWE [PDGFRB_Y589_Y589H]
1.34	LRWREYQRQDF [PRKRIP1_Y90_R87W_YF]
0.527	VFAADYFKLLG [ROR2_Y645_YF]
1.01	NGRQCYSCKGN [PLAUR_Y217]
1.45	FLAVGYHKPFI [IDS_Y225_H229Y_YF]
0.54	QDDFSYPSRQM [LDLR_Y847_G844D_YF]
0.633	LSQDVYEEDSY [RET_Y900_R897Q]
0.803	IDDNQYAFLKA [HNF4A_Y286_E285Q_YF]
0.444	CTNPRYLAAGS [RABL3_Y185]
0.417	RPSRQYATRDV [SCAMP3_Y35_L38R]
0.767	ASLEAYCKHKF [RXRA_Y403_YF]
0.523	DDPRTYQKFGF [OAS1_Y362_R361T_YF]
0.515	TRDVNYGWTIR [MT-CYB_Y75_I78T]
1.65	LGKGSYAKVKS [TSSK2_Y23]
0.915	GMTLSYLFREP [NDUFS8_Y74]
0.537	SAGSSYSISSI [PAX5_Y179_G183S]

The next lines start with the sequence.

Sequence	SH2 binding enrichment
IKKFKYGIEEH [GJA1_Y137]	0.502
KVDKEYEVGVR [GHR_Y226_R229G]	0.534
GIVKAYYVHAR [AIPL1_Y267_R270H]	0.982
SSYPDYLAAVD [GLB1_Y154_D151Y]	0.498
EESSHYSTEKE [ADAR_Y587]	0.549
TTKGSYSLFVR [HCK_Y180_S183Y_YF]	0.552
EVLKNYNQQKD [GOLGA4_Y1551]	0.32
TLSGIYQFIIA [FOXL2_Y81_YF]	1.24
TCFDKYTGSTY [FN1_Y101_N104S]	0.51
TARREYMHSPS [CPOX_Y429_W427R]	0.647
PEACDYGLGGG [GSTO1_Y239]	0.693
RFLERYIFNRQ [HLA-DPB1_Y57_E62Q_YF]	0.577
LIYTNYEVGKD [GSTP1_Y112_A114V]	0.801
ANNEFYFRVCA	0.37
FAFQLYDLDPD [CHP2_Y123_R127P_YF]	0.982
EKEQNYDLTEV [ECD_Y448]	0.704

target: Grb2 SH2 (UniProt P62993); assay: as above

SH2 binding enrichment	Sequence
0.848	ESAAIYNPVIF [RHO_Y301_K296E_YF]
0.679	PMQLPHDSTWE [PDGFRB_Y589_Y589H]
2.02	LRWREYQRQDF [PRKRIP1_Y90_R87W_YF]
0.983	VFAADYFKLLG [ROR2_Y645_YF]
0.959	NGRQCYSCKGN [PLAUR_Y217]
1.14	FLAVGYHKPFI [IDS_Y225_H229Y_YF]
0.851	QDDFSYPSRQM [LDLR_Y847_G844D_YF]
1.1	LSQDVYEEDSY [RET_Y900_R897Q]
0.677	IDDNQYAFLKA [HNF4A_Y286_E285Q_YF]
0.767	CTNPRYLAAGS [RABL3_Y185]
0.765	RPSRQYATRDV [SCAMP3_Y35_L38R]
0.963	ASLEAYCKHKF [RXRA_Y403_YF]
0.78	DDPRTYQKFGF [OAS1_Y362_R361T_YF]
1.29	TRDVNYGWTIR [MT-CYB_Y75_I78T]
0.777	LGKGSYAKVKS [TSSK2_Y23]
1.23	GMTLSYLFREP [NDUFS8_Y74]
0.66	SAGSSYSISSI [PAX5_Y179_G183S]

Second part, the sequence before the results:

Sequence	SH2 binding enrichment
IKKFKYGIEEH [GJA1_Y137]	0.644
KVDKEYEVGVR [GHR_Y226_R229G]	0.851
GIVKAYYVHAR [AIPL1_Y267_R270H]	1.23
SSYPDYLAAVD [GLB1_Y154_D151Y]	0.815
EESSHYSTEKE [ADAR_Y587]	0.955
TTKGSYSLFVR [HCK_Y180_S183Y_YF]	1.08
EVLKNYNQQKD [GOLGA4_Y1551]	0.608
TLSGIYQFIIA [FOXL2_Y81_YF]	1.49
TCFDKYTGSTY [FN1_Y101_N104S]	0.997
TARREYMHSPS [CPOX_Y429_W427R]	0.859
PEACDYGLGGG [GSTO1_Y239]	0.912
RFLERYIFNRQ [HLA-DPB1_Y57_E62Q_YF]	0.901
LIYTNYEVGKD [GSTP1_Y112_A114V]	1.12
ANNEFYFRVCA	0.716
FAFQLYDLDPD [CHP2_Y123_R127P_YF]	1.02
EKEQNYDLTEV [ECD_Y448]	0.962
